Earlier results in publication PMC13292882.

Columns and labels:
PCNA (Homo sapiens) = PCNA (Homo sapiens) (UniProt P12004); conditions: cited from earlier work
RPA (Homo sapiens) = RPA (Homo sapiens) (UniProt P27694); assay: competition peptide displacement; conditions: cited from earlier work
Sequence of RPA (Homo sapiens) (P27694 2-616, chain 1 of 3): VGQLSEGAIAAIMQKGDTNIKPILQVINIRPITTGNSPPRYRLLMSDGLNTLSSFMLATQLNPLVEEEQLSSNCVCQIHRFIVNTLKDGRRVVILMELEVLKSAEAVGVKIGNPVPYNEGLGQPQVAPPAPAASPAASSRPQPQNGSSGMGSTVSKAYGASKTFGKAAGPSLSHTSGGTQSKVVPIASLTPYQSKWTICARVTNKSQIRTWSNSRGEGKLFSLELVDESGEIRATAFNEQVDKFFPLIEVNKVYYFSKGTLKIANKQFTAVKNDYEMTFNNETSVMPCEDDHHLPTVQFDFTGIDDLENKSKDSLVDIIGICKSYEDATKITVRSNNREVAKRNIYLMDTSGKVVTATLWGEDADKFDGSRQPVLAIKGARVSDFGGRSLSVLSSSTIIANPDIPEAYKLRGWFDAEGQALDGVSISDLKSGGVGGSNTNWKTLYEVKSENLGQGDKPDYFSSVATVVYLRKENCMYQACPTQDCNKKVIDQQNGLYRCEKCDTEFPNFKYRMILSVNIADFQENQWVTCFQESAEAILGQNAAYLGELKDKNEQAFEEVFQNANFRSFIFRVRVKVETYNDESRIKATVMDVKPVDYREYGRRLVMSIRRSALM
Sequence of RPA (Homo sapiens) (P15927 whole entry, chain 2 of 3, further chain): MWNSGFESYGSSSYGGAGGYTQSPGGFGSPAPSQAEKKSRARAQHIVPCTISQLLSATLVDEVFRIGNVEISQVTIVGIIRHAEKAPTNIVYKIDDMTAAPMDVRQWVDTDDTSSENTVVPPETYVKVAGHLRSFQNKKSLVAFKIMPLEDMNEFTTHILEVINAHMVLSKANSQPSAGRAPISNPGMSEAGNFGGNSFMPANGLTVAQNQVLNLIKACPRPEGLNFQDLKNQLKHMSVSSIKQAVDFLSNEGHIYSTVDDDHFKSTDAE
Sequence of RPA (Homo sapiens) (P35244 2-121, chain 3 of 3, further chain): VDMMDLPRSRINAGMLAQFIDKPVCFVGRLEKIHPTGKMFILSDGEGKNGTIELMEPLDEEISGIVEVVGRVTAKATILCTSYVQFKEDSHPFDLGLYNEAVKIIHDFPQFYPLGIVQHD

Sequence of UNG2 (P13051 whole entry): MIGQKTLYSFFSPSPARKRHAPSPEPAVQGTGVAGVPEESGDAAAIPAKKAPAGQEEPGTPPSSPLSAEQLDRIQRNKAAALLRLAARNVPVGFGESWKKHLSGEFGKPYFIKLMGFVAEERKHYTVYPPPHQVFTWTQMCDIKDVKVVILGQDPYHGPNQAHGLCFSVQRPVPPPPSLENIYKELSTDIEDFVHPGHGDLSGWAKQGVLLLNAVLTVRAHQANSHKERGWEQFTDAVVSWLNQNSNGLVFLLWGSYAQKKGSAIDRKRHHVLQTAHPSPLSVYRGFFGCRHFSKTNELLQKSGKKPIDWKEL
Sequence of PCNA (Homo sapiens) (P12004 whole entry): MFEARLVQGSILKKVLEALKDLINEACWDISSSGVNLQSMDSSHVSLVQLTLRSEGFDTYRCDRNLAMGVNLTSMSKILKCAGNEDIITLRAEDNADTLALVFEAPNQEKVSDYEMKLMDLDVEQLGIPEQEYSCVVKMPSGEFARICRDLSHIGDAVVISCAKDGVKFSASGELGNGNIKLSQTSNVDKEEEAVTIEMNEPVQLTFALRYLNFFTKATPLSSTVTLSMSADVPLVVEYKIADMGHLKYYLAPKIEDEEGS

Substance: UNG2 (from UniProt P13051)
- Kd (PCNA (Homo sapiens)): 1000 nM
- Kd (RPA (Homo sapiens)): 3000 nM
